Experimental findings from US20030215913A1 (published 2003) are described below.

To fix the notation:
B1: BMP-5 (ligand, UniProt P22003 317-454, looked up)
chain: AANKRKNQNRNKSSSHQDSSRMSSVGDYNTSEQKQACKKHELYVSFRDLGWQDWIIAPEGYAAFYCDGECSFPLNAHMNATNHAIVQTLVHLMFPDHVPKPCCAPTKLNAISVLYFDDSSNVILKKYRNMVVRSCGCH
B2: BMP-6 (ligand, UniProt P22004 382-513, looked up)
chain: QQSRNRSTQSQDVARVSSASDYNSSELKTACRKHELYVSFQDLGWQDWIIAPKGYAANYCDGECSFPLNAHMNATNHAIVQTLVHLMNPEYVPKPCCAPTKLNAISVLYFDDNSNVILKKYRNMVVRACGCH
B3: fas-ligand (ligand, UniProt P48023 134-281, looked up)
chain: PSPPPEKKELRKVAHLTGKSNSRSMPLEWEDTYGIVLLSGVKYKKGGLVINETGLYFVYSKVYFRGQSCNNLPLSHKVYMRNSKYPQDLVMMEGKMMSYCTTGQMWARSSYLGAVFNLTSADHLYVNVSELSLVNFEESQTFFGLYKL
notes: Negative control injected over the LP226 surface; also called negative control

This assay has as its target T1, LP226 (human, UniProt Q6WN34 26-429, limits assumed).
T1 construct: Secreted chordin-like protein; the cleavage site was not determined by experiment; also called LP226 polypeptide; LP polypeptide
T1 sequence: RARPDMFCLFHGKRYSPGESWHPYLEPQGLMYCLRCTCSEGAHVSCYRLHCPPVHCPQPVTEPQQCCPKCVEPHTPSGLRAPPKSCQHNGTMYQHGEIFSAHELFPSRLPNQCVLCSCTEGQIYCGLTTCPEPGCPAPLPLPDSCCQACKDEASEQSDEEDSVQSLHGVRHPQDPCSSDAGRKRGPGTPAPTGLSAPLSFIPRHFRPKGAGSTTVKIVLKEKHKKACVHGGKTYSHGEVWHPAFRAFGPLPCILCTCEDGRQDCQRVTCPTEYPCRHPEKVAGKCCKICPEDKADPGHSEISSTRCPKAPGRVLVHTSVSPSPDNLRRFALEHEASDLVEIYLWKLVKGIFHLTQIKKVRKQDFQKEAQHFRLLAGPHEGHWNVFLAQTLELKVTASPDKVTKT
The experiment in a line: BIAcore 2000 SPR, LP226 amine-coupled to CM5 chip, ligand injected. As to the method:
A BIAcore 2000 instrument is used to detect real-time binding between immobilized LP226 and various TGF-beta and BMP proteins. LP226 is diluted to a concentration of […] in 10 mM sodium acetate buffer at pH 5.0. LP226 is immobilized to a CM5 sensor chip using the amine coupling method. Follistatin, containing BSA, is immobilized as a positive control.
TGF-beta and BMP proteins are diluted in HBS-EP buffer. Samples are injected over LP226 and control surfaces using the kinject method. Samples containing 5 µg/mL and 1 μg/mL of protein are injected at 30 μL/min for three minutes with a ninety second dissociation time. LP226 and control surfaces are then regenerated with glycine-hydrochloride at pH 3.0.
In general terms: In SPR one partner is held on a chip, and binding of the other changes the refractive index at the surface.
B1: the binding result is “no binding (tested: 5 g/mL and 1 µg/mL)”.

Take B2: the binding result is “no binding (tested: 5 g/mL and 1 µg/mL)”.

As to B3, the binding result was “no binding”.
